The values that follow come from US20140017260A1.

In the experiment the target is Runx2. Briefly: cell-based or functional assay.
For the substance “Rorβ ΔHinge (deletion of the Hinge domain), C-terminal FLAG (receptor)”, the suppression of Runx2 activation of the p6OSE2-Luc reporter construct came out at 28%.

As to “Rorβ E28A/G29A double-point mutant in the DBD, C-terminal FLAG (receptor)”, the suppression of Runx2 activation of the p6OSE2-Luc reporter construct was 96%. For “Rorβ ΔAD (deletion of the activation domain), C-terminal FLAG (receptor)”, the suppression of Runx2 activation of the p6OSE2-Luc reporter construct came to 75%. Consider “Rorβ ΔLBD (deletion of the ligand binding domain), C-terminal FLAG (receptor)”, for which the suppression of Runx2 activation of the p6OSE2-Luc reporter construct came out at 88%. In turn, “retinoic acid receptor-related orphan receptor beta (Rorβ), wild-type, with C-terminal FLAG epitope” returned a suppression of Runx2 activation of the p6OSE2-Luc reporter construct of 91%.
